The numbers were not newly measured in article PMC8980424, which cites them from elsewhere.

For orientation: Kd means the concentration at which binding is half-saturated.

Targets include IFNAR2 (Mus musculus) (UniProt O35664); IFNAR1 (Mus musculus) (UniProt P33896); IFNAR2 (Homo sapiens) (UniProt P48551); IFNAR1 (Homo sapiens) (UniProt P17181).
Sequence of UniProt O35664 (O35664 22-242): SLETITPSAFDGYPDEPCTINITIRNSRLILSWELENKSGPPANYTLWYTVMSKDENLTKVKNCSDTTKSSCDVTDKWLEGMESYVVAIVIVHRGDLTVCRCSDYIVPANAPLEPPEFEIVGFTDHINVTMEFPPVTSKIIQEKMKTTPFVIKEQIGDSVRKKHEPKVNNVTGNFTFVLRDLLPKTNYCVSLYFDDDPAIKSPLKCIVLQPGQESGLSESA
Sequence of UniProt P33896 (P33896 27-429): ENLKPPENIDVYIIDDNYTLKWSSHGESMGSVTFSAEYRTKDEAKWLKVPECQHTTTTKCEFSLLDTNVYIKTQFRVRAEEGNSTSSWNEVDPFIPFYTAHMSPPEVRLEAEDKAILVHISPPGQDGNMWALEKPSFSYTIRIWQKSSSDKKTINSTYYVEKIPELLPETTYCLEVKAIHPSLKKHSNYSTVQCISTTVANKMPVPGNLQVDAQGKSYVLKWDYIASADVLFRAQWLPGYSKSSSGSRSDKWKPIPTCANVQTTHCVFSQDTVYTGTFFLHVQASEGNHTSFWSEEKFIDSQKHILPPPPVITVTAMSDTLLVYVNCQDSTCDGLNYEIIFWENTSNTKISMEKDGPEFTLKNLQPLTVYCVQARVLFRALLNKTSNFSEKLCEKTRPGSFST
Sequence of UniProt P17181 (P17181 28-436): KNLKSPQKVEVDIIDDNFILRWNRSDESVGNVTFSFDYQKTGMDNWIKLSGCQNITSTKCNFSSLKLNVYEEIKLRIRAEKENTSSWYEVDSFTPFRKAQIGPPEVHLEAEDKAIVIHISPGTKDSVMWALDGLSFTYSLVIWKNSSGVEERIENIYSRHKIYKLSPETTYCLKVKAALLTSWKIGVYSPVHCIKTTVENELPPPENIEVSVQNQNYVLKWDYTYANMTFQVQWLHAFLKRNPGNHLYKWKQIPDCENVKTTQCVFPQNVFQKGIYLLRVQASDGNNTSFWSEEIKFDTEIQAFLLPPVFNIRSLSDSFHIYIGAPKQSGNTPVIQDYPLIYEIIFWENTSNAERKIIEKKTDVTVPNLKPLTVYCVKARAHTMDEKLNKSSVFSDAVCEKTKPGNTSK
Sequence of UniProt P48551 (P48551 27-243): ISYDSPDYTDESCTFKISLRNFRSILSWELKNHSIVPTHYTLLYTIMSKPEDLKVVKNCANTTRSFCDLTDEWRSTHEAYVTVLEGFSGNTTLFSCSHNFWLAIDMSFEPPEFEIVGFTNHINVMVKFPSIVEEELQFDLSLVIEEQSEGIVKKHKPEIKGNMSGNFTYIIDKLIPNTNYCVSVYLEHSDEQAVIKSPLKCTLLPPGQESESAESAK

Regarding Interferon beta (from UniProt P01575), the Kd in the data set with IFNAR2 (Mus musculus) was 1.7 µM; with IFNAR1 (Mus musculus), 0.01 µM.

With Interferon beta (from UniProt P01574), the Kd with IFNAR2 (Homo sapiens) is 0.0001 µM; with IFNAR1 (Homo sapiens), 0.03 µM.
